In patent US20050021237A1, “Method and apparatus for evaluating new chemical entities” (priority 2003, published 2005):

Legend:
[1] = primates; cited from earlier work
[2] = Toxicology studies in primates; format: in vivo; settings: Phase I and primate toxicology data taken together
Excerpt: (§1) In the absence of more accurate TI data, this value is used in the example. LY203638 is classified as a cardiovascular agent (since there are no prior data for hematologic agents and it is not antimicrobial). The limitations in acquiring appropriate data for LY203638 underscores the requirement to have unfettered access to the NCE's data in order to optimize Pharminator's predictive accuracy.

[3] = Phase I studies (Clinical Investigator's Brochure); format: in vivo, humans; settings: from Phase I doses ranging from 12-48 μg/kg/hour (48/12)
Excerpt: as §1

Recombinant human activated protein C [LY203638]
dose at which toxic effects observed [1]: 8 mg/m^2/hour | no-observed-adverse-effect level [1]: 2 mg/m^2/hour | therapeutic index (TI) [2]: approximately 4 | therapeutic index (TI) [3]: at least 4
